Data as given in article PMC5227094.

Target: PSD95 (mouse (endogenous in forebrain)) (UniProt Q62108)
Experiment: native gel or EMSA; BNP GluN1 immunoblot of forebrain deoxycholate extracts of WT and Glun2b^2A(CTR)/2A(CTR) mice; 1.5-NR band quantified relative to WT

UniProt Q62108, sequence (Q62108 whole entry): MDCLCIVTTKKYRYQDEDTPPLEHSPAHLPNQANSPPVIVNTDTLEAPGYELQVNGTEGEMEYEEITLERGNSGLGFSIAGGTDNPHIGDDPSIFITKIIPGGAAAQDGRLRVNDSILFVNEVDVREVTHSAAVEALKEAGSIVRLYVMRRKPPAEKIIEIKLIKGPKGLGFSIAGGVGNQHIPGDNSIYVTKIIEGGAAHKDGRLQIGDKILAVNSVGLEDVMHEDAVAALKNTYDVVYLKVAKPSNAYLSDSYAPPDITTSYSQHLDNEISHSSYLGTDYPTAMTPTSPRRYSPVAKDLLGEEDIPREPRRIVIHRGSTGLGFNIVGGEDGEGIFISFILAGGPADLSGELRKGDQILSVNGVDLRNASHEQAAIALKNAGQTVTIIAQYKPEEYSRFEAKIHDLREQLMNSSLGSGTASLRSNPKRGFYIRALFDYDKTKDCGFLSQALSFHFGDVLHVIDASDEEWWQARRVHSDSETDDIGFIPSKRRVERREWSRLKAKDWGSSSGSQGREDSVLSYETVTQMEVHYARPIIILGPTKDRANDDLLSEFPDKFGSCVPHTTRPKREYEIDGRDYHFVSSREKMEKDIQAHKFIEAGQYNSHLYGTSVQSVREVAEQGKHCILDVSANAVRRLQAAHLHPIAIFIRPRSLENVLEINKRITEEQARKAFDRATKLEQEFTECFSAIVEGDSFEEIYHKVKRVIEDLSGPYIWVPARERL

1.5-NR, % of WT: 6 % of WT
Substance: GluN2B with its C-terminal domain replaced by that of GluN2A (Glun2b^2A(CTR)/2A(CTR) knock-in)
